Measurements: the supplement of paper PMC10567573
± gives the standard deviation.

Assay: protein stability index of a GFP-peptide fusion (GPS, HEK-293T) (PSI 1-6); higher = more stable
[1] = treatment: DMSO, c terminus: a fixed tail appended
[2] = treatment: MLN4924 1 uM, 8 h, c terminus: a fixed tail appended
[3] = treatment: DMSO, c terminus: native
[4] = treatment: MLN4924 1 uM, 8 h, c terminus: native
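Also: 24-mer peptide tiles fused after GFP, lentivirally expressed, FACS-sorted into six equal bins by GFP/DsRed ratio, decoded by Illumina sequencing, PSI is the read-weighted mean bin number.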

Sequence | protein stability index [1] | protein stability index [2] | protein stability index [3] | protein stability index [4]
IHSCFSDVTCFLLPHPGLQVATSP [ATL3] | 2.34 ± 0.7 | 2.29 ± 0.49 | – | –
IIHVVKDQLIGQGIIVKDARLNGS [TENT5D] | 2.2 ± 0.18 | 2.25 ± 0.72 | – | –
IKDQGGAGEGLVRSANGFPYREDE [MAP2] | 5.13 ± 0.3 | 5.18 ± 0.28 | – | –
IKSDEECRDLVDEAKNYLLLPQER [KLHL20] | 4.68 ± 0.14 | 4.64 ± 0.13 | – | –
ILIASRDIAAGEELLYDYGDRSKA [KMT5A] | 3.44 ± 0.45 | 3.64 ± 0.65 | – | –
ILIIQGVLSDINLKKGESECQYYI [NET1] | 2.73 ± 0.54 | 2.67 ± 1 | – | –
ILIVDWDVHHGNGTQHMFEDDPSV [HDAC6] | 2.18 ± 0.23 | 2.39 ± 0.21 | – | –
ILKSQKERQCALRVFKARIYTNRY [FBXO39] | 2.41 ± 0.35 | 2.46 ± 0.29 | – | –
ILQDQEHIFAHRIYLATSSSKFYD [RHOBTB1] | 2.15 ± 0.35 | 2.4 ± 0.16 | – | –
ILQSPAFCEELESMIQEQFKKGKN [ADD1] | 3.53 ± 0.16 | 3.76 ± 0.17 | – | –
ILSACSPYFRAMFTGELAESRQTE [KLHL20] | 2.06 ± 0.086 | 2.48 ± 0.33 | – | –
ILTGCKNMLFQQNKDGIGEICLWG [ACSBG2] | 3.01 ± 1.4 | 2.92 ± 0.44 | – | –
ILTRSWEEVSTLNAQIPELKSDLE [CD207] | 3.56 ± 0.28 | 3.78 ± 0.16 | – | –
IREDRDRARLDSMVLLIMKLDQLD [DLC1] | 2.35 ± 0.45 | 2.18 ± 0.32 | – | –
IRESDPEQAPAPGEATAAPAPLCG [TBX6] | 5.32 ± 0.53 | 5.31 ± 0.2 | – | –
ISFNKTMTQLSSTLARCAKDILGF [PKD2L1] | 2.96 ± 0.85 | 2.62 ± 0.56 | – | –
ISGGVHNGEYVPWLYCYDPVMDVW [KLHL14] | 2.32 ± 0.33 | 2.59 ± 0.73 | – | –
ISKSLELCNEISLSEIKDAPKVNA [DLC1] | 4.12 ± 0.39 | 4.21 ± 0.066 | – | –
ISSVGGEAMFCDFPKINHGILYDE [CFHR2] | 3.38 ± 0.26 | – | – | –
IVRRFLNICENTEGAIAVHCKAGL [CDC14A] | 2.36 ± 0.39 | 2.11 ± 0.23 | – | –
IVSEVQFVESSGGGSSAVGQFVSL [BRF1] | 2.25 ± 0.23 | 2.23 ± 0.26 | – | –
IVSRATGRCLEVEMSKDANFGLRL [GALNT9] | 2.66 ± 0.76 | 2.72 ± 0.67 | – | –

Sequence | protein stability index [1] | protein stability index [2] | protein stability index [3] | protein stability index [4]
IVVIPGKVEEVSLPEQVDIIISEP [CARM1] | 2.47 ± 0.45 | 2.16 ± 0.29 | – | –
KADIGAPSGFKHVSHVGWDPQNGF [WAS] | 3.2 ± 0.37 | 3.33 ± 0.089 | – | –
KALEDFEDLCDRVFSDEDSELDN [FAM9B] | – | – | 4.98 ± 0.16 | 5.17 ± 0.3
KATEPTETVQTWIELLTGETWNPF [GOLPH3L] | 2.36 ± 0.13 | 2.5 ± 0.34 | – | –
KCKAEHDQLLLNYAKKESDLNGAQ [LMNB1] | 4.03 ± 0.38 | 4.01 ± 0.32 | – | –
KDLFTQRQNSAPARMLSSNERDSS [CDC25A] | 4.88 ± 0.23 | 4.84 ± 0.25 | – | –
KDTRMAEEYCHKHYDRNKDGNKDV [VPS39] | 4.68 ± 0.21 | 5.03 ± 0.23 | – | –
KEIQYLKDLIEEVRKARGKKRVP [ATF4] | – | – | 2.52 ± 0.47 | 2.33 ± 0.47
KELILDKVYTHPKWNTQTKARSYS [ZC2HC1C] | 2.91 ± 0.44 | 3.44 ± 0.46 | – | –
KERAAGGGAGSSEDDAQSRRDEQD [GOLPH3] | 5.65 ± 0.35 | 5.67 ± 0.15 | – | –
KGEVPKGSCEDEPMDSTMDDAVAG [ATE1] | 5.48 ± 0.28 | 5.61 ± 0.17 | – | –
KGFPGCKLGLHDNHWVPACHSFNR [FBXO34] | 2.26 ± 0.69 | 2.48 ± 0.15 | – | –
KGISSHSRSSLMPLRNDVDKRGET [SLC2A12] | 5 ± 0.39 | 5.06 ± 0.22 | – | –
KGKVLAQQGEYSEAIPILRAALKL [FKBP8] | 2.37 ± 0.38 | 2.42 ± 0.56 | – | –
KGNLLRHIKLHSGEKPFKCHLCNY [IKZF1] | 2.37 ± 0.38 | 2.4 ± 0.23 | – | –
KGPLVPFPNQKSEAAEPPKTPPSS [KMT5A] | 5.25 ± 0.25 | 5.39 ± 0.21 | – | –
KHLTDTSHGVRNKCLQLLGNLGSL [INTS4] | 2.45 ± 0.4 | 2.46 ± 0.42 | – | –
KIGYHLLYYLRASKAAAGKMNLYE [INTS3] | 2.3 ± 0.49 | 2.25 ± 0.23 | – | –
KKAWDDLKKYLEPRCPRMVLSLKE [FBXO3] | 2.78 ± 0.26 | 2.86 ± 0.17 | – | –
KKCGRENWTVAFAPDGSYFAWSQG [WSB1] | 2.33 ± 0.53 | 2.22 ± 0.31 | – | –
KKSRSPASAEAPGDSGERSEGEAM [ZNF511] | 5.53 ± 0.39 | 5.57 ± 0.1 | – | –
KKWGINTYKCTKQLLSERFGRGSR [ARFIP2] | 2.65 ± 0.28 | 2.86 ± 0.53 | – | –

Sequence | protein stability index [1] | protein stability index [2] | protein stability index [3] | protein stability index [4]
KLKPLGEAEREFILNLKKKECKDR [NLN] | 4.17 ± 0.23 | 4.45 ± 0.2 | – | –
KLPSSGSGKRLSGVSSVDSAFSSR [RIPK4] | 3.9 ± 0.095 | 3.99 ± 0.4 | – | –
KLRHLDISRDRLSSYYKFKLTREV [ZER1] | 2.35 ± 0.13 | 2.39 ± 0.31 | – | –
KLSARDHQKLEREARICRLLKHPN [CAMK2D] | 3.38 ± 0.31 | 3.8 ± 0.39 | – | –
KLTREVLSLFVQKLGNLMSLDISG [ZER1] | 2.86 ± 0.81 | 2.56 ± 0.46 | – | –
KMKFVIGNGKNLVDFTFVENVVHG [NSDHL] | 2.24 ± 0.19 | 2.24 ± 0.47 | – | –
KMKHHLTEHMKTHTGLKPYECGVC [ZBTB22] | 3.32 ± 0.28 | 3.5 ± 0.47 | – | –
KMLLMYCAKMEKDGYGMTPLLSAS [FEM1C] | 2.56 ± 0.67 | 2.11 ± 0.46 | – | –
KNLYKLASQCCGVHVISLHIWELS [PTGFR] | 2.97 ± 0.15 | 3.06 ± 0.48 | – | –
KNVEENLYSSSLGGGVATSPMLIV [GLT8D2] | 2.26 ± 0.26 | 2.06 ± 0.22 | – | –
KNVELKFVDSIRRQFEFSVDSFQI [TENT5C] | 2.29 ± 0.6 | 2.42 ± 0.39 | – | –
KPLFCGNSEADQLGKIFDLIGLPP [CDK4] | 2.62 ± 0.15 | 2.71 ± 0.28 | – | –
KPLTLEALGHLGNDDSADYQHFLQ [DLC1] | 4.23 ± 0.12 | 4.33 ± 0.15 | – | –
KPSKELKPLLGSAVLGLLLVLAAV [MYORG] | 2.4 ± 0.25 | 2.34 ± 0.28 | – | –
KQIAGGDVTAKNIWLAESVLDILT [INTS3] | 2.2 ± 0.064 | 2.13 ± 0.26 | – | –
KQIAVAITEALRPAGVGVVVEATH [GCH1] | 2.37 ± 0.28 | 2.42 ± 0.25 | – | –
KQKTSAALSTMGTLICRKLGGVKK [TPD52L3] | 2.98 ± 0.29 | 2.83 ± 0.34 | – | –
KQPNCSSLFKLKPLSNKTATDDTG [PLD5] | 4.46 ± 0.13 | 4.772 ± 0.045 | – | –
KRKREEEEEKEPLAVDSWWLDPGH [SERTAD1] | 4.64 ± 0.38 | 4.79 ± 0.15 | – | –
KSHLIFPQPNYADTLISQESCEKN [PCDHGA10] | 4.32 ± 0.17 | 4.32 ± 0.21 | – | –
KSITSAMNELQHDLDVVSDALAKV [TPH1] | 4.4 ± 0.18 | 4.47 ± 0.12 | – | –
